# Assay results reported in paper PMC12262736.
# Key:
# [1] = target: MadS (Enterococcus faecalis); assay: MST
# [2] = target: LiaS (Enterococcus faecalis); assay: MST
Substance,Kd [1] [µM],Kd [2] [µM]
LiaR (natural protein),25.7,2.42
MadR (natural protein),8.08,5.02
